The source of these data is IntAct's records for PubMed 18688255.

B1: Cleavage and polyadenylation specificity factor subunit 2 (Homo sapiens), Q9P2I0 (parent)
chain: MTSIIKLTTLSGVQEESALCYLLQVDEFRFLLDCGWDEHFSMDIIDSLRKHVHQIDAVLLSHPDPLHLGALPYAVGKLGLNCAIYATIPVYKMGQMFMYDLYQSRHNTEDFTLFTLDDVDAAFDKIQQLKFSQIVNLKGKGHGLSITPLPAGHMIGGTIWKIVKDGEEEIVYAVDFNHKREIHLNGCSLEMLSRPSLLITDSFNATYVQPRRKQRDEQLLTNVLETLRGDGNVLIAVDTAGRVLELAQLLDQIWRTKDAGLGVYSLALLNNVSYNVVEFSKSQVEWMSDKLMRCFEDKRNNPFQFRHLSLCHGLSDLARVPSPKVVLASQPDLECGFSRDLFIQWCQDPKNSIILTYRTTPGTLARFLIDNPSEKITEIELRKRVKLEGKELEEYLEKEKLKKEAAKKLEQSKEADIDSSDESDIEEDIDQPSAHKTKHDLMMKGEGSRKGSFFKQAKKSYPMFPAPEERIKWDEYGEIIKPEDFLVPELQATEEEKSKLESGLTNGDEPMDQDLSDVPTKCISTTESIEIKARVTYIDYEGRSDGDSIKKIINQMKPRQLIIVHGPPEASQDLAECCRAFGGKDIKVYMPKLHETVDATSETHIYQVRLKDSLVSSLQFCKAKDAELAWIDGVLDMRVSKVDTGVILEEGELKDDGEDSEMQVEAPSDSSVIAQQKAMKSLFGDDEKETGEESEIIPTLEPLPPHEVPGHQSVFMNEPRLSDFKQVLLREGIQAEFVGGVLVCNNQVAVRRTETGRIGLEGCLCQDFYRIRDLLYEQYAIV
partner: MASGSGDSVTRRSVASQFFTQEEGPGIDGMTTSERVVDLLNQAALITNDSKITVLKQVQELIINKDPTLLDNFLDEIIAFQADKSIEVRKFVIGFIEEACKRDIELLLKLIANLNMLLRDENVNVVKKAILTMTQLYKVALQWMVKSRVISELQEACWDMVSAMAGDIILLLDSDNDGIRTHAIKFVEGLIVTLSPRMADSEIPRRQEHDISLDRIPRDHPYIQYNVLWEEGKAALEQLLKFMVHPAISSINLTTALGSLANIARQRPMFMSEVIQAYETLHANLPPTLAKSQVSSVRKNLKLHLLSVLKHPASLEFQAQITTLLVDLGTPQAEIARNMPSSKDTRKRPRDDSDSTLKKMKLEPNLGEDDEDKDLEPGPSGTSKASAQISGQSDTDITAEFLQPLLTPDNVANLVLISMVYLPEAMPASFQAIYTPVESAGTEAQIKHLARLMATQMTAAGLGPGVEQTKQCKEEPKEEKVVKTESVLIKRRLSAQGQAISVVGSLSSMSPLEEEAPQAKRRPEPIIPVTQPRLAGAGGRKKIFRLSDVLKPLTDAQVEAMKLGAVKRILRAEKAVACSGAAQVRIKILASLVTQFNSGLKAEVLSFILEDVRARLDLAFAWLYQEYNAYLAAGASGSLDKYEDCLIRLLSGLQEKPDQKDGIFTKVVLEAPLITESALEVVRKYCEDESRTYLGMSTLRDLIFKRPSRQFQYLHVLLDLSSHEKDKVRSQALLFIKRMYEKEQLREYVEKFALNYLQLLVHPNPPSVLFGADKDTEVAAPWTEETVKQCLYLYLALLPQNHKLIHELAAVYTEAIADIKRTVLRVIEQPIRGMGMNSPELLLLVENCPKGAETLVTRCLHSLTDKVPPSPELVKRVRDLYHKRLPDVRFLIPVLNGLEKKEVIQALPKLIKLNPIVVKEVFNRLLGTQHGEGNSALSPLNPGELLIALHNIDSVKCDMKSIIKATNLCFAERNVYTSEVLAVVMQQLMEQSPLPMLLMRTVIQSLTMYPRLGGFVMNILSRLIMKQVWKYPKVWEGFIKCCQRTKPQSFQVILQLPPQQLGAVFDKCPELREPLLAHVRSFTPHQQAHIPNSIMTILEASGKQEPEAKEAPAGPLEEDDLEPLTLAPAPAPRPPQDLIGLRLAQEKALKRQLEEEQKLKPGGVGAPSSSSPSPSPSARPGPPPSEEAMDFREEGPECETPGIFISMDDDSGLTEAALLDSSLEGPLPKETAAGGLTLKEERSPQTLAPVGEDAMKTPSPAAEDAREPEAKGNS
B2: Cleavage and polyadenylation specificity factor subunit 2 (Homo sapiens), Q9P2I0 (parent)
chain: B1 chain
partner: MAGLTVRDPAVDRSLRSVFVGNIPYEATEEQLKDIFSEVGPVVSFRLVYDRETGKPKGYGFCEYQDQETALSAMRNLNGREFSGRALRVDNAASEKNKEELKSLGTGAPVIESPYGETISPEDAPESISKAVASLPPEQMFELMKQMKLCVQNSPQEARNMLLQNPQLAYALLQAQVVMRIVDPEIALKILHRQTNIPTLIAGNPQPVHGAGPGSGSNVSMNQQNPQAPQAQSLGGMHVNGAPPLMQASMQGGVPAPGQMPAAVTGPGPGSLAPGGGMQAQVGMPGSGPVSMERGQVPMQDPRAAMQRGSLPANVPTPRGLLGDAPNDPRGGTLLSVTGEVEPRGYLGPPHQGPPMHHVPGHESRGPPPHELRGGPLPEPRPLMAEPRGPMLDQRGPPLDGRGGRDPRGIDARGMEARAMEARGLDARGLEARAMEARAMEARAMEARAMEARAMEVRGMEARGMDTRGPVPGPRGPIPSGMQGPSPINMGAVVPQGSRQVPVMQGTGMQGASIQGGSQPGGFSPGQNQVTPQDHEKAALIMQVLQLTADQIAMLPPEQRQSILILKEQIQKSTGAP

One experiment covers variants of B1. The note with it: with sympk_human SYMPK.
Consider H67A, for which the “effect of a mutation on the interaction” value is on record as “decreasing interaction”.

Another experiment covers variants of B2. The note with it: with cstf2_human CSTF2, P33240.
On to R543A, for which the “effect of a mutation on the interaction” value is listed as “disrupting interaction”.
